Experiment: yeast display, Sf9 membrane polyspecificity reagent, FACS + sequencing; frameworks hold sequencing errors
In short: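 A synthetic nanobody library was expressed on Saccharomyces cerevisiae BJ5465 by galactose induction for 36–48 hours. The library was stained for 1 hour at 4 °C with 10% biotinylated, detergent-solubilized Sf9 membrane reagent and enriched with streptavidin microbeads before FACS. Low and high (top ~1%) gates were set on anti-HA fluorescence for expression and streptavidin fluorescence for reagent binding, and each polyreactivity label reflects the gate of origin.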

QVQLVESGGGLVQAGGSLRLSCAASASIFYIYGIGWYRQAPGKERELVARISSGDRTNYADSVKGRFTISRDNAKNTVYLHMNSLKAEDTAVYYCNARVSYYLGRYYWGQGTQVTVSS
polyreactivity (PSR sort gate): high polyreactivity

QVQLVESGGGLVQAGGSLRLSCAASASISDSYAMGRYRQAPGKERELVAAITSGDSTYYADSVKGRFTISRDNAKNTLYLQMNSLKPEDTAVYYCAKRVSRGRGYGFTDWSEYDYWGQGTQVTVSS
polyreactivity (PSR sort gate): low polyreactivity

QVQLVESGGGLVQAGGSLRLSCAASASNYERYVMGWNRQAPGKERELVAAISRSGGTTYYADSVKGRFTISRDNAKNTVYLQMNSLKPEDTAVYYCAARVPHDSAGYDYWGQATQVTVSS
polyreactivity (PSR sort gate): high polyreactivity

QVQLVESGGGLVQAGGSLRLSCAASASTFPVNAMGWYRQAPGKERELVAAIRSSTGRTYYADSVKGRFTISRDNAKNTVYLQMNSLKPEDTAVYYCAAYYLGQYEYDYWGQGTQVTVSS
polyreactivity (PSR sort gate): low polyreactivity

QVQLVESGGGLVQAGGSLRLSCAASGAIFGFYAMGWYRQAAGKERELVADITFSVGSTNYADSVKGRFTISRDNAKNTVYLQRNSLKPEDTAVYYCAVANVYYEGYDYWGQGTQVTVSS
polyreactivity (PSR sort gate): low polyreactivity

QVQLVESGGGLVQAGGSLRLSCAASGAIFQPYGMGGYSQAPGKERELVAAISRGGTTYYADSVTGRFTISRANAKNTDYLQMNSLKPEETAVYYCAVKGYRYGTRYDYRGQGTQVTVSS
polyreactivity (PSR sort gate): high polyreactivity

QVQLVESGGGLVQAGGSLRLSCAASGAIFVAYAMGWYRQAPGKDRELVAAITYSAGSTYYADSVKGRFTISRDNAKNTVYLQMNSLKPEDTAVYYCAADALVYSFIGYEYWGQGTQVTLSS
polyreactivity (PSR sort gate): low polyreactivity

QVQLVESGGGLVQAGGSLRLSCAASGAIFYYYCMGWYRQAPGKEREWVAGISSRGGRTYYADSVKGRFTISRDNAKNTVYLQMNSLKPVDTAVYYCAADRYYYAYRYFPSGYWGQGTQVTVSS
polyreactivity (PSR sort gate): low polyreactivity

QVQLVESGGGLVQAGGSLRLSCAASGAILDEYSMVWYRPAPGKAREFVAGIRTIGGSTYYADSVKGRFTISRENAKNTVYLQLNSLIPEDTADNYCAADGRTHEPQGWLGGYDYCGQGTQVTVSS
polyreactivity (PSR sort gate): low polyreactivity

QVQLVESGGGLVQAGGSLRLSCAASGAMGWYRQAPGKERELVAGITSGGSTNYADSVKGRFTISRDNAKNTVYLQMNSLKPEDTAVYDCNAVGGPRWLSVGWPYDYWGQGTQVTVSS
polyreactivity (PSR sort gate): low polyreactivity

QVQLVESGGGLVQAGGSLRLSCAASGANFGRNDMGWYRQAPGKERELVAAISWSGGRTYYADSVKGRFTISRDNAKNTVYLQMISLKPEDTAVYYCNRDYYVGRYDYWGQGTQVTVSS
polyreactivity (PSR sort gate): high polyreactivity

QVQLVESGGGLVQAGGSLRLSCAASGATFWRYAMGWYRQAPGKERELVAAISTSGGSTRYADSVKGRFTISRDNAKNTVYLQMNSLKPEDTAVYYCNAQHLARMDYWGQGTQVTVSS
polyreactivity (PSR sort gate): high polyreactivity

QVQLVESGGGLVQAGGSLRLSCAASGCIFTYNTMGWYRQAPGKERELVAAISGRGGRTYYADSVKGRFTISRDNAKNTVYLQMNSLKPEDTAVYYCNARKYSQKIYGNYNYWGKGTQVTVSS
polyreactivity (PSR sort gate): high polyreactivity

QVQLVESGGGLVQAGGSLRLSCAASGCTRWYAMGWYRQAPGKERELVAAINGRGVSTYYAVSVKGRFRISRDNAKHTVYLQMNSLKQADTAVYYCAAYAYYDRYRRYDYWGQGTQVTVST
polyreactivity (PSR sort gate): low polyreactivity

QVQLVESGGGLVQAGGSLRLSCAASGDIFDAYAMGWYRQAPGKERELVAAISRSGGSTYYADSVKGRFTISRDNAKNTVYLQMNSLKPEDTAVYYCATRFSRRYVRYDYWGQGTQVTVSS
polyreactivity (PSR sort gate): high polyreactivity

QVQLVESGGGLVQAGGSLRLSCAASGFFFAGYAMGWYRQAPGKERELVAAISSGGGSTYYADSVKGRFTISRDNAKNTVYLQMNSLKPEDTAVYYCAARRLYPPGYYYWGQGTQVTVSS
polyreactivity (PSR sort gate): high polyreactivity

QVQLVESGGGLVQAGGSLRLSCAASGFFFGFYAMGWYRQAPGKERELVASISGRGGRTSYADSVKGRFTISRDNAKITVYLQMNSLKPEDTAVYYCNKAGYGVSRKYDYWGQGTQVTVSS
polyreactivity (PSR sort gate): high polyreactivity

QVQLVESGGGLVQAGGSLRLSCAASGFICFDYDMGWYRQAPGKERELVAAINWTGGSTDYADSVKGRFTISRDNAKNTVYLQMNSLKPEDTAVYYCAAEGQDGRFYWGQGTQVTVSS
polyreactivity (PSR sort gate): low polyreactivity

QVQLVESGGGLVQAGGSLRLSCAASGFIDAYTMGWYRQAPGKERELVAAMTWSGGRTYYADSVKGRFTISRDNAKNTVYLQLYSLKPEDTAVYYCAKDVTPYSPDDDYWGQGTQVTVSS
polyreactivity (PSR sort gate): low polyreactivity

QVQLVESGGGLVQAGGSLRLSCAASGFIFACYAMAWYRQAPGKERELVATISSSGARTYYADSVKGRFTISRDNAKNTVYLQMNSLKPEDTAVYYCSAAGRYRPVSPYSGYNYWGQGTQVTVSS
polyreactivity (PSR sort gate): high polyreactivity

QVQLVESGGGLVQAGGSLRLSCAASGFIFAEYAMGWYRQAPGKERELVVAIDVGGGSTYYADSVKGRFTISRDNAKNTVYLQMNSLKPEDTAVYYCAATQYGYWVPYQGFDYWGQGTQVTVSS
polyreactivity (PSR sort gate): low polyreactivity

QVQLVESGGGLVQAGGSLRLSCAASGFIFAFYDKGWYRQAPGKERELVAAISWGGSTYYADSVKGRVTISRDNAKNTVYLQMNSLKPEDTAVYYCAARLSRSYLYGYWGQGTQVTVSS
polyreactivity (PSR sort gate): high polyreactivity

QVQLVESGGGLVQAGGSLRLSCAASGFIFAINAMGWYRQAPGKERELVAAITSSGGSTYYADSVKGRFTISRDNAKNTVYLQMNSLKPEDTAVYYCAAPQGNPSQDWEDYWGQGTQVTVSS
polyreactivity (PSR sort gate): low polyreactivity

QVQLVESGGGLVQAGGSLRLSCAASGFIFAPYAMGWYRQAPGKERELVAAISWSGGSTYYADSVKGRFTISRDNAKNTVYLQMNSLKPEDTAVYYCAAAGYITRYDRYDYWGQGTQVTVSS
polyreactivity (PSR sort gate): high polyreactivity

QVQLVESGGGLVQAGGSLRLSCAASGFIFAQNAMGWSRQAPGTERELVAAITSSGVSTYYADSVKGRFTISRDNAKNTVYLQMNSLKPEDTAVYYCNRTPRYTIRYGYWGQGTQVTVSS
polyreactivity (PSR sort gate): high polyreactivity

QVQLVESGGGLVQAGGSLRLSCAASGFIFARNAMGWYRQAPGKERELVATITRSSGSTYYADSVKGRFTISRDNAKNTVYLQMNSLKPEDTAVYYCNARLYGTFWGQGTQVTVSS
polyreactivity (PSR sort gate): high polyreactivity

QVQLVESGGGLVQAGGSLRLSCAASGFIFARNTMGWYRQAPGKERELVAAITKSGGSTYYADSVKGRFTISRDNAKNTVYLQMNSPKPEDTSVYYCAARSWWLRGIYGFDSWGQGTQVTVSS
polyreactivity (PSR sort gate): low polyreactivity

QVQLVESGGGLVQAGGSLRLSCAASGFIFARNVMGWSRQAPGKERELVAAISWSGGSTYYADSVKGRFTISRDNAKNTVYLQMNSLKPEDTAVYYCNKQFPFSKYYIMGYWGQGTQVTVSS
polyreactivity (PSR sort gate): high polyreactivity

QVQLVESGGGLVQAGGSLRLSCAASGFIFARYAMGWYIQAPGKERELVAAITRRGGSTYYADSVKGRFTISRDNAKNTVYLQMNSLKPEDTAVYYCAAVTSTSWGSVSYRYGVGYDYWGQGTQVTVSS
polyreactivity (PSR sort gate): high polyreactivity

QVQLVESGGGLVQAGGSLRLSCAASGFIFARYAMGWYREAPGKERELLAAITARGGSTYYADSVKGRFTISRDNAKNTVYLQMNSLKPEDTAVYYCADVSGYSTGGYRNRYNYWGQGTHVTVSS
polyreactivity (PSR sort gate): high polyreactivity

QVQLVESGGGLVQAGGSLRLSCAASGFIFARYAMGWYRQAPGKERELVASITGRGTSTRYADSVKGRFTISRDNAKNTVYLQMNSLKPEDTAVFYCNAARLSYSWVPSEMDYWGQGTQVTVSS
polyreactivity (PSR sort gate): high polyreactivity

QVQLVESGGGLVQAGGSLRLSCAASGFIFASNAMGWYRQAPGKERELVASISRSGGNTYYADSVKGRFTISRDNAKNTVYLQMNSLKPEDTAVYYCAAEYIFHYYDIFDYWGQGTQVTVSS
polyreactivity (PSR sort gate): high polyreactivity

QVQLVESGGGLVQAGGSLRLSCAASGFIFASYAMGWYRQAPGKERELVAAITQSGGITYYADSVKGRFTISRDNAKNTVYLQMTSLKPEDTAVYYCNTPLLKRTTRGRERNYWGQGTQVTVSS
polyreactivity (PSR sort gate): low polyreactivity

QVQLVESGGGLVQAGGSLRLSCAASGFIFASYTMGRTRQAPGKERELVAAISRAGSTYYADSVKGRFTISRDNAKNTVYLQMNSLKPEDTAVYYCNAVSWRTSRYDYWGQGTQVTVSS
polyreactivity (PSR sort gate): high polyreactivity

QVQLVESGGGLVQAGGSLRLSCAASGFIFAVYGMGWYTQAPGKQRELVAAISTGDSTKYADSVKGRFTISRDNAKNTVYLQMNSLNPEDTAVYYCAADGPYEGYDYWGQGTQVTVSS
polyreactivity (PSR sort gate): high polyreactivity

QVQLVESGGGLVQAGGSLRLSCAASGFIFAWSAMGWYRQAPGKERELVAAISYSGGSTFYADSVKGRFTISRDNAKNTVYLQMNSLKPEDTAVYYCARYYRALGTARNDYWGQGTQVTVSS
polyreactivity (PSR sort gate): low polyreactivity

QVQLVESGGGLVQAGGSLRLSCAASGFIFAWYAMGWSRQAPGKERELVADISWGGGSTYYADSVKGRFTISRDNAKNTVYLQMNSLKPEDTAVYYCAATRPATYAAYDYWGQGTQVTVSS
polyreactivity (PSR sort gate): high polyreactivity

QVQLVESGGGLVQAGGSLRLSCAASGFIFAYNAMGWYRQAPGKERELVASIRTRGGSTYYADSVKGRFTISRDNAKNTVYLQMNSLKPEDTAVYYCAARPFPRRYDYWGQGTQVTVSS
polyreactivity (PSR sort gate): low polyreactivity

QVQLVESGGGLVQAGGSLRLSCAASGFIFAYYAMGWYRQATGKERELVAGITRGSSTYYADSVKGRFTISRDNAKNTVYLQMNSLKPEDTAVYYCARGYTWFYAVWPEYDYWGEGTQVTVSS
polyreactivity (PSR sort gate): high polyreactivity

QVQLVESGGGLVQAGGSLRLSCAASGFIFDAYAMGWYRQAPGKERELVAAITRGNTYYADSVTGRFTISRDNAKNTVYLQMNSLKPEDTAVYYCAARYWQSYRSQVTHSSTLDYWGQGTQVTVSS
polyreactivity (PSR sort gate): low polyreactivity

QVQLVESGGGLVQAGGSLRLSCAASGFIFDDNAMGWYRQAPGKERELVAAITSGGGSTYYADSVKGRFTISRDNAKNTVYLQMNSLKPEDTAVYYCARDQTWSYQPWYYLSYPQYEYWGQGTQVTVSS
polyreactivity (PSR sort gate): low polyreactivity

QVQLVESGGGLVQAGGSLRLSCAASGFIFDDYAMGWYRQAPGKERELVAAISASGGRTFYADSVKGRFTISRDNAKNTVYLQMNSLKPEDTAVYYCATIVDTYVFRYYYWGQGTQVTVSS
polyreactivity (PSR sort gate): high polyreactivity

QVQLVESGGGLVQAGGSLRLSCAASGFIFDFYAMGWYRQAPGKERELVATINSSGTTNYADSVKGRFTISRDNAKNTVYLEMISLKPEDTAVYDCATVEYLGHYTYDYWGQGTQVTVSS
polyreactivity (PSR sort gate): low polyreactivity

From the nanobody polyreactivity screen of Harvey et al. (2022)
